The results in this text go back to US20250326867A1, “De novo designed chlorophyll special pair proteins” (University of Washington, priority 2024, published 2025).

The data set concerns the molecule itself. The data set is described as follows: size-exclusion chromatography, self-association (homodimer). How it is done:
FIG. 7. Size exclusion chromatography (SEC) traces of purified SP apo-proteins. Proteins were injected as 0.5 mL aliquots onto a Superdex™ 200 Increase 10/300 GL column (Cytiva Life Sciences). The narrow, isolated peaks indicate that the samples contain monodisperse protein. Running buffer was 150 mM NaCl, 10 mM Tris at pH 8. Proteins were purified by Ni-NTA and one round of SEC prior to collecting the data shown.
Proteins were purified by Ni-NTA and size-exclusion chromatography (SEC) (FIG. 7). […] A slightly lower predicted radius of gyration (Rg) value compared to experimental SAXS data is likely due to a dense hydration shell around the highly charged SP proteins (Svergun et al. 1998; Kim et al. 2016). The far ultraviolet (UV) circular dichroism (CD) spectra of three SP proteins that expressed in high yield (≥140 mg/L) show the proteins are highly α-helical with and without the synthetic Chl a derivative, Zn pheophorbide a methyl ester (ZnPPaM). Thermal denaturation curves monitored by the CD signal at 222 nm indicate that all three proteins are highly thermostable in the apo- and holo-states (FIG. 2).
On the technique in general: Size exclusion chromatography separates by hydrodynamic size, large species first.

B1: D2T (designed binder)
chain: SGSGSEEEELERLKEQLKIWQKLIKLILEQDPNDEQIRRILEQAEEIIQKLQEDPNNEELQRLIQLLFQLVLGIFIIKQILELDPNDEQIRRILEQAKEIIQKLQEDPNNEELYRLQGLLGMLVGIILLIKLMLEQDPNDELIREILEQAKEIIQKLQEDPNNQELLSLIHLLLALVLWIWFMKFQLEQDPNDEEIRRQLEQLEERIRRTLE
notes: Designed homodimer subunit, after TEV cleavage
Regarding B1, the binding result is “binds”.

B2: D2N (designed binder)
chain: SGSGSEEEEIRLAQLTIQIIQYQVEKNGDEQLLRLIQEITEQLQKEGDERLIRILNAMFTIIWILEAVEKNGDEELLRLIQEITEKLARQGDERLIKILSAMAGIIWILEIVKKNGDEQLLRLIREITRKLAEEGDERLIQILANMHSIIISSEELEKNGDEELLQKLRELLEKIAKELEHHHHHH
notes: as for B1
On to B2, for which the binding result was “binds”.

B3: D2S (designed binder)
chain: SGSGSEEEELERLKEQLKIWQKLIKLILEQDPNDEQIRRILEQAEEIIQKLQEDPNNEELQRLIQLLFNLVAIIFSIKQILELDPNDEQIRRILEQAKEIIQKLQEDPNNEELFLLAHMLFALVAIILLIKLMLEQDPNDELIREILEQAKEIIQKLQEDPNNAELAMLIALLLSLVLWIWFMKFQLEQDPNDEEIRRQLEQLEERIRRTLE
notes: as for B1
With B3, the binding result was “binds”.

B4: D2M (designed binder)
chain: SGSGSEEEQIRLAQLAIQIIQYQVEKNGDEQLLRLIQEITEQLQKEGDERLIAILSTMFGIIWILEQVEKNGDEELLRLIQEITEKLARQGDERLIQIGAAMLAIIIILEQVKKNGDEQLLRLIREITRKLAEEGDQRLIWILHAMMAIIMSSEELEKNGDEELLQKLRELLEKIAKE
notes: as for B1
Consider B4, for which the binding result is reported as “binds”.

B5: SP2 (designed binder)
chain: SGSGSSDEEFKFLATEAKMLITAAERLAGTDPELQEMVALIKKELEQAERTFRNGDKSEAQRQLEFVLTAARAVMNVAAAANAAGTDPELIEMVLRILKQLKEAIRTFQNGDQEEAETQLRFVLRAAIAVAVVAAALVLAGTDPELQEMVKQILEELKQAIETFARGDKEKALTQLLFVAWAAHAVAMIAAAANLAGTDPRLQQQVKEILEKLKEAIETFQKGDEEQAFRQLAEVLAEAALVALRAALTN
notes: De novo designed subunit of a C2 homodimer
With B5, the binding result is on record as “binds”.

B6: JG (designed binder)
chain: SGSGSSDELEARLLIISANLQAEMAQIAAERTGDPRVRELARELKRLAQEAAEEVKRDPSSSEVNQNLTLISMAIALAVLALLLARKAGDEEARDIAREAVEVAVRAAELILEGRDEQRAWTLFLIAHALLLAVLAARLGNSEVAELAVKVLRLAKELEKLLPSEIALFVVSMIGMAALQAAMAASGGQEDYARDALRRLEEAIREAEENRSKESLEKVMEEAIRAYEQALRALAGG
notes: as for B1
For the protein B6, the binding result is reported as “binds”.

B7: SP1 (designed binder)
chain: GGDSRELIARYQILLAELAAIRADIAAERTGDPYVRKLARELKRLAQEAAEEVKRDPSSSDVNMALLLILLMIELAVRALEAAERTGDPEVRELAAELVWLAVEAAEEVQRNPSSSDVWLALHLIMLAIWAAVAALEAAERTGDPEVRELARELVRLAVEAAEEVQRNPSSKEVYMALLLILIAILEAVLSLLRAERSGDPEKREKARERVREAVERAEEVQR
notes: as for B5
For the protein B7, the binding result is recorded as “binds”.

B8: D2K (designed binder)
chain: SGSGSREKELKQLISNLQILLLILLSQDPNNELVRKLQEKIKEAEEQGDPRRLKLIWWILALINILQALEQEDPNNELVKRLKELIKRALEEGDPRLLQLILLILHLIWLLQALEKEDPNNELVKRLKKLIEEALKEGDPRKLWQILALLLWIAQIQKLKKQDPNNELIKRAEETLEQSLKT
notes: as for B1
For the protein B8, the binding result is reported as “binds”.

B9: D2Q (designed binder)
chain: SGSGSEEEEKRLIEKMSKFIWWFAQQLGDERILRAVEKLQQEIKENSPTPETYMTLGNLLLSLLIWWAAQQLGDEKILEAVERLLQQIEENSPTPETHLTLAILMSALAIWQQAQKLGDEDILEAVERLLEEIQRNSPTPSTMTKLLWLALLLNNWEELQKQGDEEQLRSSEKAMKELKE
notes: as for B1
With B9, the binding result is reported as “binds”.

B10: JF (designed binder)
chain: SGSGSSDELQARFLILSAKLQAEMAQIAAERTGDPRVRELARELKRLAQEAAEEVKRDPSSSEVNSNLALISMAIALAVLALLLARKAGDEEARDIAREAVEVAVRAAELILEGRDDQRAWTLWLIAHALLMAVYAARLGNSEVAELAVKVLRLAKELEKLLPSEEALFVVSMIGLAALQAAMAAAGGQEDYARDALRRLEEAIREAEENRSKESLEKVEEEGIEAMEQALRAIAGG
notes: as for B1
As for B10, the binding result is reported as “binds”.

B11: JH (designed binder)
chain: SGSSEELAREAREAAIRLAQASTKLMEAMIRGDLKELAEALIELARAVQELARVAKEYGNDELAKLAAFLAAHIAMLAIWVLILAIREGDDEVRELAKTAIKLASTAAKIVLDALPTAEEVRIITLLAKLAEEAADKKNEDSALAVLIAAMAVLIALAALEAAQRAGIEEAEKAARLLLKLAGEAARKKNPEEAKAVYNAALLVSIALLLLQKAKRAGSEETRRLAEEMLRQALERARKKN
notes: as for B1
Regarding B11, the binding result is recorded as “binds”.

B12: D2P (designed binder)
chain: SGSGSEEEEKRLIEKMSKFIWWFAQQLGDERILRAVEKLQQEIKENSPTPETFMTLINLLLSLLIWWAAQKLGDEKILEAVERLLQQIEENSPTPETHMTLAALAQSLAIWQQAQKLGDEDILEAVERLLEEIQRNSPTPSTLIKLTWLLLLLNNWQELQKQGDEEQLRSSEKAMKELKE
notes: as for B1
Turning to B12, the binding result is “binds”.

B13: tj79C2-H62A (designed binder)
chain: SGSGSRYDELNARLLILLAELAAERADIAAERTGDPRVRELARELKRLAQEAAEEVKRDPSSWSVLHALWLIVVAIEAAVRALEAAERTGDPEVRELARELVRLAVEAAEEVQRNPSSWDVFMALLLIVFAIEAAVRALEAAERTGDPEVRELARELVRLAVEAAEEVQRNPSSKEVDMALLLILIAILEAVLSLLRAERSGDPEKREKARERVREAVERAEEVQRDPSGW
notes: as for B1
Consider B13, for which the binding result was “binds”.

B14: D2O (designed binder)
chain: SGSGSEEEEIRLAQLAIQIIQYQVEKNGDEQLLRLIQEITEQLQKEGDERLIRILLAMFAIILILEHVEKNGDEELLRLIQEITEKLARQGDERLIRILIAMAGIIWILELVKKNGDEQLLRLIREITRKLAEEGDERLIQILLAMHAIIISSEQLEKNGDEELLQKLRELLEKIAKE
notes: as for B1
Turning to B14, the binding result is “binds”.

B15: D2R (designed binder)
chain: SGSGSEEEELKRLQTLIKYLQLLIQNAKWQNPDDELLRQVEELIEEMKKRLEENPNSQEDQALLKLLITIIALIIMILWLKSENPDDELLRQVEELIKEMIERLKENPNSQEDQALLQLLHAILGLILLIQQLKKQNPDDELLQQVEELIEEMIKRLKENPNSEKDQILLSFLALSLLSIFLIQTQKKQNPDDERLKQWEKQIKESIESSKE
notes: as for B1
As to B15, the binding result was “binds”.

B16: D2L (designed binder)
chain: SGSGSREKELKQLISNLQILLLILLSEDPNNELVRKLQEKIKEAEEQGDPRRLKLIWWILNLIQMLQQLEQEDPNNELVKRLKELIKRALEEGDPRLLLLIHIILALIWLLQALEKEDPNNELVKRLKKLIEEALKEGDPRKLIQIALLLTWIATIQRLKKQDPNNELIKRAEETLEQSLKT
notes: as for B1
Regarding B16, the binding result is recorded as “binds”.
